In WO2006003999A1 (dated 2006):

T1: human B7RP-1-Fc (human, UniProt O75144 19-256, limits assumed)
T1 construct: not shown: Fc part
T1 sequence (looked up): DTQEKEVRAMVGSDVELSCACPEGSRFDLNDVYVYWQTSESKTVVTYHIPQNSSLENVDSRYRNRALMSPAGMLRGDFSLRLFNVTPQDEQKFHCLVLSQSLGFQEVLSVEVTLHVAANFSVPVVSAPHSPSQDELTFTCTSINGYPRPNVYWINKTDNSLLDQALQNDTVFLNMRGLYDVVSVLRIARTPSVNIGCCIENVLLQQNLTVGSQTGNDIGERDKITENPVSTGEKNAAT


How the values were obtained:
human B7RP-1-Fc [1] = biological target: T1, human B7RP-1-Fc; test: SPR (BIAcore), ICOS-Fc immobilised on CM5, B7RP-1-Fc injected
human B7RP-1-Fc [2] = biological target: T1, human B7RP-1-Fc; test: SPR (BIAcore), B7RP-1-Fc immobilised on CM5 or captured by anti-human Fc F(ab')2, scFv injected at 100 nM

Row | Kd (human B7RP-1-Fc [1]) [nM] | Kd (human B7RP-1-Fc [2]) [nM] | Binder
1 | ~7 | – | ICOS-Fc (Fc fusion, human, UniProt Q9Y6W8 21-140, looked up, also called ICOS (Inducible costimulator) Fc fusion; biotin-labeled ICOS-Fc; not shown: Fc part) EINGSANYEMFIFHNGGVQILCKYPDIVQQFKMQLLKGGQILCDLTKTKGSGNTVSIKSLKFCHSQLSNNSVSFFLYNLDHSHANYYFCNLSIFDPPPFKVTLTGGYLHIYESQLCCQLK
2 | – | 13 to 15 | human anti-human B7RP-1 single-chain Fv antibody clone 223 (scFv, part only; not given: linker and E tag, not shown: small tags and cut ends) scFv, part: EVQLLQSGADVKKPGASVKVSCTASGYTFTAYYLNWVRQAPGQGLEWMGWLNPTSGDTYYAQKFQGRVTMTRDTSINTAYMELSSLKSDDTAVYYCARDIRSIEVPFDLWGQGTLVTVSSGIVLTQSPGTLSLSPGERVALSCRASQSVTSSFVAWYQQKPGQTPRLLVYGASSRVPGIPDRFSGNGSGTDFTLTITRLEPEDFAIYYCQYYGDSPYTFGQGTKVDIKR
